Test results as given in paper PMC8040287, “Characterization of two enzymes from Psychrobacter cryohalolentis that are required for the biosynthesis of an unusual diacetamido-D-sugar” (The Journal of Biological Chemistry, 2021).

Key:
[1] = molecular target: T1, Pcryo_0638 (Psychrobacter cryohalolentis, UniProt Q1QD32); experiment: X-ray crystal structure, […] Å; type: binding; conditions: pH 8.0
T1 construct: full length; N-terminal His tag removed with rTEV; expressed in E. coli Rosetta2(DE3); dimer; residues Ala 5 to Asn 399 seen in crystal
T1 sequence (Q1QD32 1-400): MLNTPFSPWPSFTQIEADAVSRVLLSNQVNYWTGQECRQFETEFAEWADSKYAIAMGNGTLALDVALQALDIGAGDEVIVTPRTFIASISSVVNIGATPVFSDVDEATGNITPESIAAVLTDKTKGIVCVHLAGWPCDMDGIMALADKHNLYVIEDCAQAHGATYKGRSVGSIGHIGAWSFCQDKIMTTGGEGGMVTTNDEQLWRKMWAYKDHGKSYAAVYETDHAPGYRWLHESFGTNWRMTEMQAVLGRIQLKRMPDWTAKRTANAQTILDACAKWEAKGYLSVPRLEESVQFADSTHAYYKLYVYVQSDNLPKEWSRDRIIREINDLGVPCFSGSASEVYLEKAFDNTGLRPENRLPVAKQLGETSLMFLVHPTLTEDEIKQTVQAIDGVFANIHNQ

[2] = molecular target: Pcryo_0637, N-acetyltransferase from Psychrobacter cryohalolentis K5T, C-terminally His-tagged form used for crystallization (Psychrobacter cryohalolentis K5T (ATCC BAA-1226)) (UniProt Q1QD33); experiment: crystal structure; hanging drop, room temperature, 23-26% 2-methyl-2,4-pentanediol, 100 mM HEPES pH 7.5, with CoA or acetyl-CoA and UDP or UDP-sugar ligands (four complexes); space group R3, one subunit in the asymmetric unit, trimer formed about the crystallographic triad; 1.3-1.55 Å
[3] = substrate: CC(=O)N[C@H]1[C@@H](OP(=O)(O)OP(=O)(O)OC[C@H]2O[C@@H](n3ccc(=O)[nH]c3=O)[C@H](O)[C@@H]2O)O[C@H](C)C(=O)[C@@H]1O; experiment: purified protein; type: biochemical, Psychrobacter cryohalolentis; conditions: 50 mM HEPPS pH 8.0, 0.5 mM PLP, 40 mM sodium glutamate
[4] = molecular target: the molecule itself; experiment: crystal structure; hanging drop, room temperature, 18-22% PEG 8000, 200 mM tetramethylammonium chloride, 100 mM HEPPS pH 8.0, with 1 mM PLP and 5 mM UDP-2-acetamido-4-amino-2,4,6-trideoxy-D-glucose; space group P1, one dimer in the asymmetric unit; 1.3 Å
[5] = substrate: CC(=O)N[C@H]1[C@@H](OP(=O)(O)OP(=O)(O)OC[C@H]2O[C@@H](n3ccc(=O)[nH]c3=O)[C@H](O)[C@@H]2O)O[C@H](C)[C@@H](N)[C@@H]1O; experiment: discontinuous HPLC assay of acetylated product, Michaelis-Menten fit; type: biochemical, Psychrobacter cryohalolentis; conditions: 50 mM HEPPS pH 8.0, 1.5 mM acetyl-CoA, structure with CoA solved on C-terminally tagged protein
Source text: (§1) discontinuous HPLC assay of acetylated product, Michaelis-Menten fit on Pcryo_0637

[6] = substrate: CC(=O)SCCNC(=O)CCNC(=O)[C@H](O)C(C)(C)COP(=O)(O)OP(=O)(O)OC[C@H]1O[C@@H](n2cnc3c(N)ncnc32)[C@H](O)[C@@H]1OP(=O)(O)O; experiment: as above; type: biochemical, Psychrobacter cryohalolentis; conditions: 50 mM HEPPS pH 8.0, 8 mM UDP-2-acetamido-4-amino-2,4,6-trideoxy-D-glucose, structure with UDP solved on C-terminally tagged protein
Source text: as §1

Question: How did the “X-ray crystal structure, 1.3 Å” value ([1]; half-occupancy beside the external aldimine) turn out when `Cc1ncc(COP(=O)(O)O)c(CN)c1O` [PMP] was run?
Answer: a mixture of the external aldimine and PMP was subsequently built into the electron density

Question: Which “X-ray crystal structure, 1.3 Å” value ([1]; covalent, external aldimine with the aminosugar product, half-occupancy) does the source give for `Cc1ncc(COP(=O)(O)O)c(C=O)c1O` [PLP] here?
Answer: a mixture of the external aldimine and PMP was subsequently built into the electron density

Question: “Pcryo_0637, N-acetyltransferase from Psychrobacter cryohalolentis K5T, C-terminally His-tagged form used for crystallization (from UniProt Q1QD33 1-219) (enzyme)” was tested. Which stoichiometry N [2] did it give?
Answer: 3

B1: Pcryo_0638, PLP-dependent aminotransferase from Psychrobacter cryohalolentis K5T (enzyme)
chain: MLNTPFSPWPSFTQIEADAVSRVLLSNQVNYWTGQECRQFETEFAEWADSKYAIAMGNGTLALDVALQALDIGAGDEVIVTPRTFIASISSVVNIGATPVFSDVDEATGNITPESIAAVLTDKTKGIVCVHLAGWPCDMDGIMALADKHNLYVIEDCAQAHGATYKGRSVGSIGHIGAWSFCQDKIMTTGGEGGMVTTNDEQLWRKMWAYKDHGKSYAAVYETDHAPGYRWLHESFGTNWRMTEMQAVLGRIQLKRMPDWTAKRTANAQTILDACAKWEAKGYLSVPRLEESVQFADSTHAYYKLYVYVQSDNLPKEWSRDRIIREINDLGVPCFSGSASEVYLEKAFDNTGLRPENRLPVAKQLGETSLMFLVHPTLTEDEIKQTVQAIDGVFANIHNQ
notes: Pcryo_0638, aminotransferase encoded by gene 0638 of Psychrobacter cryohalolentis K5T (ATCC BAA-1226); electron density continuous from Ala 5 to Asn 399; also called protein encoded by the 0638 gene; Pyro_0638; source: E. coli Rosetta2(DE3), purified (Ni-NTA, tag removed with rTEV protease); not shown: polyhistidine tag, N-terminal, cleaved
Question: What does the source list for B1?
Answer: Km [3]: 290 ± 40 µM; kcat [3]: 1.9 ± 0.2 s⁻¹; kcat/Km [3]: 6600 ± 700 M⁻¹ s⁻¹; stoichiometry N [4]: 2

B2: Pcryo_0637 (Psychrobacter cryohalolentis K5) (protein)
chain: MSKVFAVYGASGCGRSLMPVANEQLRILEGDTDSQIVFIDDALDDNITVNGYTAMNYTKFKSIKNDDKFVLIAIANSSIRQKIADKLVKDGISLWTVQGMTTLIMDEVSIDAGAALSPFVTIAANVTIGKCFHANLYSYVEHDCIIGDYVTFAPRVSCNGNIHIHDHAYIGTGAVIKQGTPDKPLIIGKGAIVGMGAVVTKEVPAGAVVIGNPARLLNK
notes: full length; kinetics with N-terminal His tag removed by rTEV; crystals with noncleavable C-terminal tag LEHHHHHH; expressed in E. coli Rosetta2(DE3); trimer; domains Ser 2-Ser 93 and Leu 94-Ala 218
Question: For B2, which Km [5] is on record?
Answer: 620 ± 50 µM

Question: What about the kcat [5] of the same molecule?
Answer: 545 ± 40 s⁻¹

Question: What about the kcat/Km [5] of the same molecule?
Answer: 880000 ± 90000 M⁻¹ s⁻¹

Question: What about the Km [6] of the same molecule?
Answer: 70 ± 8 µM

Question: What about the kcat [6] of the same molecule?
Answer: 1900 ± 200 s⁻¹

Question: What about the kcat/Km [6] of the same molecule?
Answer: 2.7e+07 ± 3e+06 M⁻¹ s⁻¹
